Measurements as given in US20200400675A1 (ECS PROGASTRIN, published 2020).

T1: human progastrin (human, UniProt P01350 22-101)
T1 construct: also called hPG; PG
T1 sequence: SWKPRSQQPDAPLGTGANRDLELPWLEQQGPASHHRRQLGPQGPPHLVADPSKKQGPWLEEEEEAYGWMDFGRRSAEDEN

B1: mAb3 (hybridoma 6B5B11C10) (antibody, V domains shown)
VH: EVQLQQSGTVLARPGASVKMSCKASGYIFTSYWVHWVKQRPGQGLEWIGGFYPGNSDSRYNQKFKGKATLTAVTSASTAYMDLSSLTNEDSAVYFCTRRDSPQYWGQGTTLTVSS
VL: DVLMTQTPLSLPVSLGDQASISCRSSQSIVHSNGNTYLEWYLQKPGQSPKLLIYKVSNRFSGVPDRFSGSGSGTDFTLKISRLEAEDLGVYYCFQGSHVPFTFGGGTKLEIK
notes: Murine monoclonal antibody
B2: mAb4 (hybridoma 20D2C3G2) (antibody, V domains shown)
VH: QVQLQQSGAELMKPGASVKISCKATGYTFSSSWIEWLKQRPGHGLEWIGEFLPGSGSTDYNEKFKGKATFTADTSSDTAYMLLSSLTSEDSAVYYCATDGNYDWFAYWGQGTLVTVSA
VL: DLVMTQTPLSLPVSLGDQASISCRSSQSLVHSSGVTYLHWYLQKPGQSPKLLIYKVSNRFSGVPDRFSGSGSGTDFTLKISRVEAEDLGVYFCSQSTHVPPTFGSGTKLEIK
notes: Murine monoclonal antibody
B3: mAb16 (hybridoma 1E9D9B6) (antibody, V domains shown)
VH: QVQLQQSGAELVKPGASVKLSCKASGYTFTSYYMYWVKQRPGQGLEWIGEINPSNGGTNFNEKFKSKATLTVDKSSSTAYMQLSSLTSEDSAVYYCTRGGYYPFDYWGQGTTLTVSS
VL: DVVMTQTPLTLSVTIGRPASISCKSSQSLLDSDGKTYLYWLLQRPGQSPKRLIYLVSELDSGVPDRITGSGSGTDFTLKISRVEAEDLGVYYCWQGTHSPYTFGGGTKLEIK
notes: Murine monoclonal antibody
B4: mAb19 (hybridoma 1B3B4F11) (antibody, V domains shown)
VH: DVQLQESGPGLVKPSQSLSLTCTVTGYSITSDYAWNWIRQFPGNKLEWMGYISFSGYTSYNPSLKSRISVTRDTSRNQFFLQLTSVTTEDTATYYCAREVNYGDSYHFDYWGQGTIVTVSS
VL: QLALTQSSSASFSLGASAKLTCTLSSQHRTYTIEWYQQQSLKPPKYVMEVKKDGSHSTGHGIPDRFSGSSSGADRYLSISNIQPEDEAIYICGVGDAIKGQSVFVFGGGTKVTVL
notes: Murine monoclonal antibody
B5: mAb13 (hybridoma 2C6C3C7) (antibody, V domains shown)
VH: EVQLVESGGGLVQPGGSLKLSCAASGFIFSSYGMSWVRQSPDRRLELVASINTFGDRTYYPDSVKGRFTISRDNAKNTLYLQMTSLKSEDTAIYYCARGTGTYWGQGTTLTVSS
VL: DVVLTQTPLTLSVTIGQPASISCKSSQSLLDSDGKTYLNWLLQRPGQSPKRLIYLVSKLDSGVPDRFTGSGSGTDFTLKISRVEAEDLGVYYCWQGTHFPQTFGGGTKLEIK
notes: Murine monoclonal antibody

target: T1, human progastrin; experiment: epitope mapping (no details given)

Q: Does B1 bind?
A: Result: binds

Q: Does B2 bind?
A: Result: binds

Q: Does B3 bind?
A: Result: binds

Q: Does B4 bind?
A: Result: binds

Q: Does B5 bind?
A: Result: binds
